{"source": "patent US11396668B2", "about": "“Methods of producing nor-opioid and nal-opioid benzylisoquinoline alkaloids” (priority 2016, dated 2022)", "molecules": {"B1": {"name": "4H9: BM3 variant (Bacillus megaterium cytochrome P450) listed in Table 6 (protein)", "chain": "MTIKEMPQPKTFGELKNLPLLNTDKPVQALMKIADELGEIFKFEAPGRVTRYLSSQRLIKEACDESRFDKNLSQALKFARDFAGDGLVTSWTHEKNWKKAHNILLPSFSQQAMKGYHAMMVDIAVQLVQKWERLNADEHIEVSEDMTRLTLDTIGLCGFNYRFNSFYRDQPHPFIISMVRAADEVMNKLQRANPDDPAYDENKRQFQEDIKVMNDLVDKIIADRKARGEQSDDLLTQMLNGKDPETGEPLDDGNIRYQIIAFLIAGHETTSGLLSFALYFLVKNPHVLQKVAEEAARVLVDPVPSYKQVKQLKYVGMVLNEALRLWPTAPAFSLYAKEDTVLGGEYPLEKGDEVMVLIPQLHRDKTVWGDDVEEFRPERFENPSAIPQHAFKPFGNGQRACIGQQFALHEATLVLGMMLKHFDFEDHTNYELDIKETATLKPKGFVVKAKSKKIPLGGIPSPSTEQSAKKVRKKAENAHNTPLLVLYGSNMGTAEGTARDLADIAMSKGFAPQVATLDSHAGNLPREGAVLIVTASYNGHPPDNAKQFVDWLDQASADEVKGVRYSVFGCGDKNWATTYQKVPAFIDETLAAKGAENIADRGEADASDDFEGTYEEWREHMWSDVAAYFNLDIENSEDNKSTLSLQFVDSAADMPLAKMHGAFSTNVVASKELQQPGSARSTRHLEIELPKEASYQEGDHLGVIPRNYEGIVNRVTARFGLDASQQIRLEAEEEKLAHLPLAKTVSVEELLQYVELQDPVTRTQLRAMAAKTVCPPHKVELEALLEKQAYKEQVLAKRLTMLELLEKYPACEMKFSEFIALLPSIRPRYYSISSSPRVDEKQASITVSVVSGEAWSGYGEYKGIASNYLAELQEGDTITCFISTPQSEFTLPKDPETPLIMVGPGTGVAPFRGFVQARKQLKEQGQSLGEAHLYFGCRSPHEDYLYQEELENAQSEGIITLHTAFSRMPNQPKTYVQHVMEQDGKKLIELLDQGAHFYICGDGSQMAPAVEATLMKSYADVHQVSEADARLWLQQLEEKGRYAKDVWAG"}, "B2": {"name": "8F11: BM3 variant (Bacillus megaterium cytochrome P450) listed in Table 6 (protein)", "chain": "B1 chain with A182L, A261T"}, "B3": {"name": "7A1: BM3 variant (Bacillus megaterium cytochrome P450) listed in Table 6 (protein)", "chain": "B1 chain with L76A, M178A, A438L"}, "B4": {"name": "CODM: codeine O-demethylase, yeast codon-optimized gene integrated into yeast strain W303 (protein, listed as Papaver somniferum)", "chain": "METPILIKLGNGLSIPSVQELAKLTLAEIPSRYTCTGESPLNNIGASVTDDETVPVIDLQNLLSPEPVVGKLELDKLHSACKEWGFFQLVNHGVDALLMDNIKSEIKGFFNLPMNEKTKYGQQDGDFEGFGQPYIESEDQRLDWTEVFSMLSLPLHLRKPHLFPELPLPFRETLESYLSKMKKLSTVVFEMLEKSLQLVEIKGMTDLFEDGLQTMRMNYYPPCPRPELVLGLTSHSDFSGLTILLQLNEVEGLQIRKEERWISIKPLPDAFIVNVGDILEIMTNGIYRSVEHRAVVNSTKERLSIATFHDSKLESEIGPISSLVTPETPALFKRGRYEDILKENLSRKLDGKSFLDYMRM"}, "B5": {"name": "DHFR: Dihydrofolate reductase from R. norvegicus, yeast codon optimized, expressed from low-copy plasmid (protein, UniProt Q920D2 1-187, looked up)", "Dihydrofolate reductase": "MVRPLNCIVAVSQNMGIGKNGDLPWPLLRNEFKYFQRMTTTSSVEGKQNLVIMGRKTWFSIPEKNRPLKDRINIVLSRELKEPPQGAHFLAKSLDDALKLIEQPELASKVDMVWVVGGSSVYQEAMNQPGHLRLFVTRIMQEFESDTFFPEIDLEKYKLLPEYPGVLSEIQEEKGIKYKFEVYEKKD"}}, "key": {"[1]": {"system": "tyrosine hydroxylase activity (wild-type RnTyrH)", "assay": "L-DOPA and BH4 levels with antioxidant added to growth media of engineered yeast", "assay_type": "cell-based", "details": "2 mM in the media", "from_the_text": "A yeast strain containing the following mutations to central metabolism (as described in U.S. Provisional Patent Application Ser. No. 61/899,496): ARO4^FBR, ΔZWF1, and GPD-TKL1 promoter replacement and expressing four chromosomally integrated genes from R. norvegicus that generate the cosubstrate tetrahydrobiopterin (pyruvoyl tetrahydropterin synthase, PTPS; sepiapterin reductase, SepR; pterin 4a-carbinolamine dehydratase, PCD; dihydropteridine reductase, QDHPR) as well as wild-type RnTyrH from a low-copy plasmid under the control of the GPD promoter was grown in selective defined media (YNB) lacking tyrosine with 2% galactose and 2 mM ascorbic acid for 96 hours.\nThe production of L-DOPA was measured in the media via LC-MS/MS in MRM mode with the transition 198 m/z to 152 m/z. […] In addition, the concentration BH4 intermediates were measured with LC-MS/MS in MRM mode with the following transitions: B, 238 m/z to 178 m/z; BH2, 240 m/z to 165 m/z and BH4, 242 m/z to 166 m/z.\nAccordingly, FIG. 11A illustrates addition of antioxidants to culture media that improves L-DOPA production by tyrosine hydroxylase in engineered yeast strains and (B) addition of antioxidants to culture media that increase BH4 levels, in accordance with embodiments of the invention. […] The production of L-DOPA was measured in the media via LC-MS/MS in MRM mode with the transition 198 m/z to 152 m/z. […]"}, "[2]": {"system": "thebaine", "assay": "Thebaine N-demethylase activity of BM3 variants in yeast", "assay_type": "cell-based, yeast strains (CEN.PK2)", "details": "100 μM thebaine, 20 hours, buffers pH 5.0-8.5", "experimental": "(§1) Specifically, BM3 variants 4H9, 7A1, and 8F11 (listed in Table 6) were integrated into the genomes of individual yeast strains (CEN.PK2) and incubated in citric acid-phosphate buffer (pH 5.0, 6.0, 7.0) and Tris-HCl buffer (pH 7.5, 8.0, 8.5) with 100 μM thebaine for 20 hours. A genetic construct which was identical except for the exclusion of the BM3 open reading frame was integrated to generate a no-enzyme control strain. […] The northebaine generated by the yeast strains was quantified by liquid chromatography mass spectrometry. The mass spectrum of northebaine (m/z 298) lacked the m/z 58 product ion consistent with a demethylated nitrogen (see FIG. 27C).\nas §1, with “FIG. 27A, FIG. 27B and FIG. 27C illustrate the functional expression of BM3 variants, in accordance with embodiments of the invention. […] FIG. 27B illustrates the functional expression of BM3 variants with thebaine N-demethylase activity in yeast.” for “Specifically,”, “8F11” for “8F11 (listed in Table 6)”"}, "[3]": {"system": "oxycodone", "assay": "Oxycodone 3-O-demethylase activity of CODM in crude yeast cell lysate", "assay_type": "biochemical, yeast strain W303", "details": "0.1 mM oxycodone, 10 mM 2-oxoglutarate, 30° C., 3 h, LC-MS", "experimental": "FIG. 29 illustrates the functional expression of CODM, in accordance with embodiments of the invention. In particular, FIG. 29 illustrates the functional expression of CODM with oxycodone 3-O-demethylase activity in yeast. The yeast codon-optimized CODM gene was integrated into the genome of yeast strain W303 and cultured in synthetic complete media for 16 hours. The parent W303 strain was also cultured in synthetic complete media for 16 hours as a no-enzyme control. The cells were pelleted and washed with 1 mL breaking buffer (100 mM Tris-HCl pH 7.5, 10% glycerol, 14 mM 2-mercaptoethanol, lx protease inhibitor). Cells were resuspended in 200 μL breaking buffer and lysed by glass bead disruption. The crude cell lysates were incubated with 10 mM ascorbic acid, 0.5 mM iron(II) sulfate, 0.1 mM oxycodone as substrate and 10 mM 2-oxoglutarate as cosubstrate in a total volume of 100 μL. 4 mM DTT was also added as a reducing agent to keep iron in the Fe^2+ state. The reaction was incubated at 30° C. for 3 h and quenched by diluting it 1:1 in ethanol with 0.1% acetic acid. […] The mass-charge ratio (m/z 302), retention time, and mass spectrum of oxymorphone produced by the yeast strain matched that of a purchased oxymorphone standard (see FIG. 29)."}, "[4]": {"system": "L-DOPA production by tyrosine hydroxylase", "assay": "L-DOPA production with DHFR coexpressed with wild-type RnTyrH in engineered yeast", "assay_type": "cell-based", "details": "YNB lacking tyrosine, 2% dextrose, 96 hours", "from_the_text": "Dihydrofolate reductase (DHFR) from R. norvegicus was yeast codon optimized, synthesized, and cloned into a low-copy plasmid under the control of a GPD promoter. DHFR was coexpressed with wild-type RnTyrH (low-copy plasmid with a GPD promoter) in a yeast strain containing the following mutations to central metabolism (as described in U.S. Provisional Patent Application Ser. No. 61/899,496): ARO4^FBR, ΔZWF1, and GPD-TKL1 promoter replacement. In addition, the strain expressed four chromosomally integrated genes from R. norvegicus that generate the cosubstrate tetrahydrobiopterin (pyruvoyl tetrahydropterin synthase, PTPS; sepiapterin reductase, SepR; pterin 4a-carbinolamine dehydratase, PCD; dihydropteridine reductase, QDHPR). The strains expressing DHFR and wild-type RnTyrH were grown in selective defined media (YNB) lacking tyrosine with 2% dextrose for 96 hours, and the production of L-DOPA was measured in the media via LC-MS/MS in MRM mode with the transition 198 m/z to 152 m/z. Expression of DHFR with wild-type RnTyrH increases L-DOPA production by 1.8-fold, as illustrated in FIG. 10. As such, FIG. 10 illustrates coexpression of dihydrofolate reductase (DHFR) that improves L-DOPA production by tyrosine hydroxylase in engineered yeast strains, in accordance with embodiments of the invention."}}, "note": "Substitutions are numbered along the chain they refer to.", "data": [{"molecule": "O=C1O[C@H]([C@@H](O)CO)C(O)=C1O", "note": "[ascorbic acid]", "values": [{"measurement": "improvement of L-DOPA production with wild-type RnTyrH", "setting": "[1]; 96 hours", "value": 1.8, "unit": "fold"}, {"measurement": "BH4 in the media", "setting": "[1]; LC-MS/MS", "value": "increases BH4 in the media"}]}, {"molecule": "B1", "values": [{"measurement": "northebaine production from thebaine (N-demethylation)", "setting": "[2]", "value": "produced northebaine at all tested pH levels above 7.0"}]}, {"molecule": "B2", "values": [{"measurement": "northebaine production from thebaine (N-demethylation)", "setting": "[2]", "value": "produced northebaine at all tested pH levels above 7.0"}]}, {"molecule": "B3", "values": [{"measurement": "northebaine production from thebaine (N-demethylation)", "setting": "[2]", "value": "produced northebaine at all tested pH levels above 7.0"}]}, {"molecule": "B4", "values": [{"measurement": "oxymorphone generated from oxycodone (3-O-demethylation)", "setting": "[3]", "value": "detected by LC-MS"}]}, {"molecule": "B5", "values": [{"measurement": "increase of L-DOPA production", "setting": "[4]", "value": 1.8, "unit": "fold"}]}]}
